Several values for one entry are separate records, joined by “and”; a condition that tells them apart may be missing. Equal entries are not always repeated.
Assays:
[1] = tested on: intact skin of human and swine; assay: Penetration of insulin into intact skin (own experiment, result not shown); assay type: in vivo; settings: no shear perforation
Excerpt: The stratum corneum is recognized as the primary barrier to percutaneous absorption of drug applied to the skin surface. The densely structured outmost skin layer consisting of flattened and keratinized dead skin cells provides a formidable permeation barrier to most small and virtually all large compounds. […] Our own experiment confirmed this (result not shown). This example investigates in vivo transdermal delivery of insulin into swine following application of shear perforation to remove the stratum corneum barrier at the test site.

female Yorkshire pigs [2] = assay: Subcutaneous injection of insulin (control experiment): blood glucose and plasma insulin profiles; assay type: in vivo, pig; settings: four pigs
Excerpt: The subcutaneous administration of insulin provides a dose response to which a comparative measure of transdermally delivered insulin can be made. An insulin dose of 5 IU insulin (Regular Iletin® II, Insulin Injection, USP, Purified Pork, Eli Lilly and Company, Indianapolis, Ind., USA) was subcutaneously injected in the rear mid-ventral area of each of four female Yorkshire pigs (weight: 22-26 kg) with a 1 cc Sub-Q Precision Glide® Needle (Becton-Dickinson and Company, Franklin Lakes, N.J., USA).
As the insulin concentrations went back to its basal concentration (FIG. 5b), the blood glucose concentrations also were gradually returned toward its pre-insulin injection level (FIG. 5a).

female Yorkshire pigs [3] = assay: Transdermal delivery of insulin by passive diffusion following shear perforation of the skin; assay type: in vivo, pig
Procedure: Two female Yorkshire pigs of the same body weight range as those in Example 2 were immobilized with anesthetics. The test site on the side of the chest was prepared by clipping lightly off the hair and cleaning with an alcohol wipe. Special care was taken not to damage the skin. Shear perforation of the pig skin was performed with a Remington shaver (Remington Microscreen 1®, Remington, Bridgeport, Conn., USA) by pressing its screen firmly on the skin for about 1 second. This procedure was repeated at an adjacent skin site until 10 cm^2 of the skin was shear-perforated. Only slight erythema was observed on the test site. A drug reservoir patch made of silicone rubber (Silastic® Sheet, Medical Grade, Dow Corning Corp., Midland, Mich., USA) was affixed to the test skin with silicone adhesive (Secure® Adhesive, BT-401, Factor II, Inc., Lakeside, Ariz., USA). […] The thickness of the drug reservoir was 0.5 mm. An insulin solution (0.5 ml, Regular Iletin® II, Insulin Injection, USP, Purified Pork, Eli Lilly and Company, Indianapolis, Ind., USA) was placed into the drug reservoir which covered the shear-perforated skin to allow insulin molecules to enter the pig body through the pores on the stratum corneum driven by insulin concentration gradient. Transdermal insulin delivery was conducted in this way for 50 minutes. Insulin delivery was then terminated by removing the insulin patch. Blood samples were taken from the pigs prior to, during, and after transdermal insulin delivery for determination of blood glucose and insulin concentrations.

pigs = assay: Swine glucose monitoring study: subcutaneous fast-acting insulin, blood glucose; assay type: in vivo, pig; settings: 2 IU subcutaneous, four pigs
Procedure: A swine study was conducted for glucose measurements in both capillary blood and ISF extracted from the micropores generated by the shear perforation procedure as described in Example 3. Briefly, subcutaneous injections of fast-acting insulin (2 IU, Regular Iletin® II, U-100, Pork, Eli Lilly, Indianapolis, Ind.) were administered to four pigs. […] Glucose changes in the blood were monitored periodically using One Touch® Basic glucose meter (LifeScan, Inc., Milpitas, Calif.) on blood samples from the ear vein. ISF samples were obtained by application of a weak suction to the micropores on the skin with an Asoivenin® suction device (ASPIR, Sannois, France). The ISF samples collected throughout the whole experiment were tested for glucose using both a FastTake® and One Touch® Basic glucose meter blood glucose meters (LifeScan, Inc., Milpitas, Calif.) as wells as an YSI glucose analyzer (Model 2700 Select Biochemistry Analyzer, YSI Inc., Yellow Springs, Ohio). A calibration procedure was conducted for the two home-use glucose meters (i.e., the One Touch® and FastTake® meters) against the YSI glucose analyzer using aqueous glucose solutions of various concentrations.

With insulin the “penetration into intact skin” value [1] was “cannot penetrate into the intact skin”, the peak insulin concentrations (female Yorkshire pigs [2]; 5 IU insulin subcutaneous injection, plasma, FIG. 5b) was 31-55 μIU/ml and the blood glucose concentration (female Yorkshire pigs [2]; 5 IU insulin subcutaneous, FIG. 5a) was “rapid reduction in blood glucose concentration”. For the same substance, the blood glucose (female Yorkshire pigs [3]; 0.5 ml insulin solution patch over 10 cm^2 shear-perforated skin, 50 minutes, two pigs, FIG. 6a) was “Drastic reduction in the blood glucose”, the “time for blood glucose concentrations to return to a near normal level” value (female Yorkshire pigs [3]; transdermal insulin over shear-perforated skin, 50 minutes delivery, two pigs) was “about 5 hours” and the “peak plasma insulin concentrations” value (female Yorkshire pigs [3]; transdermal, shear-perforated skin 10 cm^2, one value per pig, FIG. 6b) was 50 μIU/ml and 90 μIU/ml. For the same substance, the “time of peak plasma insulin concentration” value (female Yorkshire pigs [3]; transdermal, shear-perforated skin, peak at the end of delivery) was 50 min and the blood glucose concentration (pigs) was “significant reduction in the blood glucose concentration”.

Source: US20090005659A1, “Tissue Ablation by Shear Force for Sampling Biological Fluids and Delivering Active Agents” (priority 2000, published 2009)
